Our source for the co-precipitated PMS2 in relation to wild-type (% of wild-type) values is publication PMC2908215.

The assay addresses T1, MLH1 p.Arg659Leu (human), P40692.
T1 chain: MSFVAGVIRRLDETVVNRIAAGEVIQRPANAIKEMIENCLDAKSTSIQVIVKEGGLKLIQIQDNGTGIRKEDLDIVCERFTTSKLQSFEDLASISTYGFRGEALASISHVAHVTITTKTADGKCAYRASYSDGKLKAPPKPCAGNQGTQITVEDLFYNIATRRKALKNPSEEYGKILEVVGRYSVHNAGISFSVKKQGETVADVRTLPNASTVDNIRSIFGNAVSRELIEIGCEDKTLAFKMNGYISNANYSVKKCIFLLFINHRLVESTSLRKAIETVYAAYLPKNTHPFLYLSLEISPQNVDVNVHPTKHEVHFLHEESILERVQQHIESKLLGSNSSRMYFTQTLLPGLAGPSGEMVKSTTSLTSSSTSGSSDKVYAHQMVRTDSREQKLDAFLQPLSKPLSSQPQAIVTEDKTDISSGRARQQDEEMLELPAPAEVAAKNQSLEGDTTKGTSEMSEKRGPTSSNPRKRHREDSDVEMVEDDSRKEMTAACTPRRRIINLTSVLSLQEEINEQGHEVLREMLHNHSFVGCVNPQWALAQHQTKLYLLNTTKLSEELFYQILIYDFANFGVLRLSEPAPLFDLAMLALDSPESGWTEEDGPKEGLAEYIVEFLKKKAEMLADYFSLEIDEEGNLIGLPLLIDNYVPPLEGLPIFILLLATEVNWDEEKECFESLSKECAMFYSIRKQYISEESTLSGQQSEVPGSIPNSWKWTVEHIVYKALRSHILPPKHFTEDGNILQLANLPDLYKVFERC
Briefly: co-IP. As to conditions: remark: other sources report otherwise.

B1: PMS2, P54278 1-862 (natural protein)
chain: MERAESSSTEPAKAIKPIDRKSVHQICSGQVVLSLSTAVKELVENSLDAGATNIDLKLKDYGVDLIEVSDNGCGVEEENFEGLTLKHHTSKIQEFADLTQVETFGFRGEALSSLCALSDVTISTCHASAKVGTRLMFDHNGKIIQKTPYPRPRGTTVSVQQLFSTLPVRHKEFQRNIKKEYAKMVQVLHAYCIISAGIRVSCTNQLGQGKRQPVVCTGGSPSIKENIGSVFGQKQLQSLIPFVQLPPSDSVCEEYGLSCSDALHNLFYISGFISQCTHGVGRSSTDRQFFFINRRPCDPAKVCRLVNEVYHMYNRHQYPFVVLNISVDSECVDINVTPDKRQILLQEEKLLLAVLKTSLIGMFDSDVNKLNVSQQPLLDVEGNLIKMHAADLEKPMVEKQDQSPSLRTGEEKKDVSISRLREAFSLRHTTENKPHSPKTPEPRRSPLGQKRGMLSSSTSGAISDKGVLRPQKEAVSSSHGPSDPTDRAEVEKDSGHGSTSVDSEGFSIPDTGSHCSSEYAASSPGDRGSQEHVDSQEKAPKTDDSFSDVDCHSNQEDTGCKFRVLPQPTNLATPNTKRFKKEEILSSSDICQKLVNTQDMSASQVDVAVKINKKVVPLDFSMSSLAKRIKQLHHEAQQSEGEQNYRKFRAKICPGENQAAEDELRKEISKTMFAEMEIIGQFNLGFIITKLNEDIFIVDQHATDEKYNFEMLQQHTVLQGQRLIAPQTLNLTAVNEAVLIENLEIFRKNGFDFVIDENAPVTERAKLISLPTSKNWTFGPQDVDELIFMLSDSPGVMCRPSRVKQMFASRACRKSVMIGTALNTSEMKKLITHMGEMDHPWNCPHGRPTMRHIANLGVISQN
B1 came in with a co-precipitated PMS2 in relation to wild-type (% of wild-type) of 77.
